From patent US20200317817A1 (XOMA US, published 2020)

Experiments:
[1] = target: T1, human PTH1R overexpressed on CHO cells (human, UniProt Q03431 27-593); test: cell-based or functional assay
T1 sequence (looked up): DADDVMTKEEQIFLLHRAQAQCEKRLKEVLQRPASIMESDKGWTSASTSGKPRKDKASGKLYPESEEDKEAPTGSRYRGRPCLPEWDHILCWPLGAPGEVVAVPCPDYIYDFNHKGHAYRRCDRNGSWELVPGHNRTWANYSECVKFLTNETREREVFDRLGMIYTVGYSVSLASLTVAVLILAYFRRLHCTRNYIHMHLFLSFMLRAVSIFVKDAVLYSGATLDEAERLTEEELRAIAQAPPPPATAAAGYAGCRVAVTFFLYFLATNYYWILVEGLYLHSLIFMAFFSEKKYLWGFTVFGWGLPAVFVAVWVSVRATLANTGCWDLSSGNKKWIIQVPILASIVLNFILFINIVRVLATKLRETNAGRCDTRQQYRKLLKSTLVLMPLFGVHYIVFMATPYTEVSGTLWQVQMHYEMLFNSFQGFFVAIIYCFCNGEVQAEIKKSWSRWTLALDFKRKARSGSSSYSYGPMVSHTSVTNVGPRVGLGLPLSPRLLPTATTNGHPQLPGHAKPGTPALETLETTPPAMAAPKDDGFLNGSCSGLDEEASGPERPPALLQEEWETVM

[2] = target: T2, mouse PTH1R overexpressed on CHO cells (mouse, UniProt P41593 27-591); test: cell-based or functional assay
T2 sequence (looked up): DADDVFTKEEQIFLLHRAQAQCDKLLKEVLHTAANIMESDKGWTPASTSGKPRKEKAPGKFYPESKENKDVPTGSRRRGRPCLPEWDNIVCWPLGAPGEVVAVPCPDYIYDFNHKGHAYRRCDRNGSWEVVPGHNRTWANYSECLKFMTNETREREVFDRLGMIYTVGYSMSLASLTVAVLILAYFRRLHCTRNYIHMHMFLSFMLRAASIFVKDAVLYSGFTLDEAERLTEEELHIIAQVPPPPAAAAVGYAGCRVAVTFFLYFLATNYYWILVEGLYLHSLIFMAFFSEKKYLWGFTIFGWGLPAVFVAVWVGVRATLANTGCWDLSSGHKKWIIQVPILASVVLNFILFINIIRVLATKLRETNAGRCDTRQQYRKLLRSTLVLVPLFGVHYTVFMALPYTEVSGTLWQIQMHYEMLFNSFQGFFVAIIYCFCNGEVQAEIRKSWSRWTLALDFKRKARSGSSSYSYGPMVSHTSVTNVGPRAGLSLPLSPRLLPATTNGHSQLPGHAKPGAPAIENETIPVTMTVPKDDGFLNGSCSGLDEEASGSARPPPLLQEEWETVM

[3] = target: T3, rat PTH1R on UMR106 cells (rat, UniProt P25961 27-591); test: cell-based or functional assay
T3 sequence (looked up): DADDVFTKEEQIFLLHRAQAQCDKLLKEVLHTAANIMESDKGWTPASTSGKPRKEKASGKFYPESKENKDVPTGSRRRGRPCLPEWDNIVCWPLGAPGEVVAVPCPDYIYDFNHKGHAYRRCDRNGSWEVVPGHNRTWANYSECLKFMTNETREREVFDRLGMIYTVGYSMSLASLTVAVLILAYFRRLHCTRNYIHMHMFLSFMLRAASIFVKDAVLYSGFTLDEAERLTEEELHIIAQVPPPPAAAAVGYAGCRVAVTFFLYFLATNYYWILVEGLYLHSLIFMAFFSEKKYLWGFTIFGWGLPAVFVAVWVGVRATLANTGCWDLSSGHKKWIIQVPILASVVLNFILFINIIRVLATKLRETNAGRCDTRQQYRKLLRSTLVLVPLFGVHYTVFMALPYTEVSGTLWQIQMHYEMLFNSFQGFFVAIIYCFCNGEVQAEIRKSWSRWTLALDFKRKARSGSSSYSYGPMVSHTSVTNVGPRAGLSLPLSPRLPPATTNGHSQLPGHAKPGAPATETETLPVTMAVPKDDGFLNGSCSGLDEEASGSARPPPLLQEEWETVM

[4] = target: T4, human PTH1R on Saos-2 cells (endogenous) (human, UniProt Q03431 27-593); test: cell-based or functional assay
T4 sequence (looked up): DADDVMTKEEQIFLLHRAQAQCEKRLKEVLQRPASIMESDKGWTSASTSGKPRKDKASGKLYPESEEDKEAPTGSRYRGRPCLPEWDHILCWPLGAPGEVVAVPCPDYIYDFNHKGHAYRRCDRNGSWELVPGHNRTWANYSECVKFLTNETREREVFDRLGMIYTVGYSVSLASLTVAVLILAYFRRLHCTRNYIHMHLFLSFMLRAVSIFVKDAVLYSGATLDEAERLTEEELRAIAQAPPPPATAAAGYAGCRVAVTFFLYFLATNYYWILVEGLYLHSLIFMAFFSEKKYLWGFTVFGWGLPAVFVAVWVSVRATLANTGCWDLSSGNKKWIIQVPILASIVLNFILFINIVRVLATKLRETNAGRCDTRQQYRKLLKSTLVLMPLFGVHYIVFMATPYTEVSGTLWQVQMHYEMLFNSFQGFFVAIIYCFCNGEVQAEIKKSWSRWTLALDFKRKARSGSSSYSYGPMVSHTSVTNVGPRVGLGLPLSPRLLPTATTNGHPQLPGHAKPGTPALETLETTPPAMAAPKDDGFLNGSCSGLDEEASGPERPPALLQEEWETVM

[5] = target: T4, human PTH1R on Saos-2 cells (endogenous); test: cell-based or functional assay; remark: listed apart in the source
[6] = target: T3, rat PTH1R on UMR106 cells; test: cell-based or functional assay; remark: listed apart in the source
[7] = target: T4, human PTH1R on Saos-2 cells (endogenous); test: cell-based or functional assay; remark: listed apart in the source
[8] = target: T1, human PTH1R overexpressed on CHO cells; test: cell-based or functional assay; remark: listed apart in the source
[9] = target: T2, mouse PTH1R overexpressed on CHO cells; test: cell-based or functional assay; remark: listed apart in the source
[10] = target: T5, recombinant N-terminal extracellular domain of the human PTH1R receptor (human, UniProt Q03431 27-188, limits assumed); test: SPR, IgG captured, ECD injected
T5 construct: domain: N-terminal extracellular domain; Bought reagent; also called N-ECD PTH1R; PTH1R N-terminal ECD
T5 sequence (looked up): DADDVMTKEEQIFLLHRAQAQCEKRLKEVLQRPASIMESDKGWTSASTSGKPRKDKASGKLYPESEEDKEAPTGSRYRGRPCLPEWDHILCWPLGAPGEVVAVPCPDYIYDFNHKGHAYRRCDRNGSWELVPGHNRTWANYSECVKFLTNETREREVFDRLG
Procedure: An anti-human IgG-Fc CMS sensor chip (GE Healthcare) was prepared using standard amine coupling as described by the manufacturer's protocol for the capture Ab on a BIACORE 4000 system (GE Healthcare). Briefly, the chip surface was activated with a 10 minute injection at 10 μL/minute of a freshly mixed 1:1 solution of 0.1 M N-Hydroxysuccinimide (NHS) and 0.4 M 1-Ethyl-3-(3-dimethylaminopropyl) carbodiimide hydrochloride (EDC). Following the activation injection, 15 ug/mL anti-human IgG-Fc antibody in acetate pH 4.5 was injected at 10 μL/minute for 10 minutes to achieve a high density capture surface. 7 minutes of 1M Ethanolamine hydrochloride-NaOH pH 8.5 was injected to block the surface. The NHS, EDC, and Ethanolamine used were from the BIACORE Amine Coupling Kit.
Kinetic Analysis was performed using HBS-EP+(Teknova) with 2.5 mg/mL BSA (Sigma Aldrich, St. Louis Mo.). Antibodies were diluted to 0.5 μg/mL and captured to achieve a surface density of 100 to 200 RU. […] Injections were performed at 30 μL/minute for 240 seconds with a 360 second dissociation time. Regeneration was then performed with one 60 second injection 3M MgCl.
The data were analyzed using BIACORE 4000 Evaluation Software and was double referenced by subtracting both the blank flow cell data and the averaged bracketing blank injections. The data was fit by simultaneously fitting the an off-rate (kd) and on-rate (kₐ), and calculating the KD as KD=kd/kₐ.

[11] = target: T6, human PTH2R overexpressed on CHO cells (human, UniProt P49190 25-550); test: flow cytometry on CHO cells overexpressing human PTH2R, 1 hr at 4 C, APC anti-human IgG
T6 construct: whole, on cells; also called CHO human PTH2R
Procedure: Increasing concentrations of anti-PTH1R antibodies were added to CHO cells overexpressing human PTH2R and incubated for 1 hr at 4° C. (FIG. 8). Cells were washed twice with FACS Buffer and antibody binding was detected with anti-human IgG APC. […] Anti-KLH.G2 was used a negative control for binding.
PTH2R has a 51% homology to PTH1R. […] Following two washes, cells were incubated with Allophycocyanin (APC) AffiniPure F(ab′)₂ Fragment Goat Anti-Human IgG (H+L) (Jackson ImmunoResearch, West Grove, Pa.) for 20 minutes at 4° C. Cells were washed twice and resuspended in FACS Buffer. Samples were acquired using BD Cytometer (BD Biosciences, San Jose, Calif.) and data were analyzed using FlowJo (FlowJo, LLC, Ashland, Oreg.) and Prism (GraphPad Software, La Jolla, Calif.). […] Anti-KLH.G2 was used a negative control for binding.

[12] = target: T7, human PTH1R overexpressed on Saos-2 cells (human, UniProt Q03431 27-593); test: flow cytometry on Saos-2 cells overexpressing human PTH1R, antibody alone, PE anti-human IgG
T7 construct: whole, on cells; also called Saos-2 human PTH1R cells
T7 sequence (looked up): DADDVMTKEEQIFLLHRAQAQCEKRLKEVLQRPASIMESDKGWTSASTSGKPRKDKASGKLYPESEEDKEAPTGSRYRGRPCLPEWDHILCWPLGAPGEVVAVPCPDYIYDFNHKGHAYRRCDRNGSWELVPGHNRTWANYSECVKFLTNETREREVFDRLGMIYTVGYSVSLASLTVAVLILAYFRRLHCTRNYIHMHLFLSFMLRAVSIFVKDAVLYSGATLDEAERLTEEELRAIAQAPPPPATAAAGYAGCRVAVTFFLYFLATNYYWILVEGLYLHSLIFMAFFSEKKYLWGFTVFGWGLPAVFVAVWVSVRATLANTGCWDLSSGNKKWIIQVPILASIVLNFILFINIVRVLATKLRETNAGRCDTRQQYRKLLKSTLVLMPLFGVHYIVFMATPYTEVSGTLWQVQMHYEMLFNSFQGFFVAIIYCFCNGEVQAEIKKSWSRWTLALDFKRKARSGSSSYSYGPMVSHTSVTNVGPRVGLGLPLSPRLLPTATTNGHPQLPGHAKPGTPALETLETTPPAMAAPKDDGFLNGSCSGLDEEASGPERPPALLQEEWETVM

[13] = target: T7, human PTH1R overexpressed on Saos-2 …; test: flow cytometry on Saos-2 cells overexpressing human PTH1R, in the presence of 1 uM PTH, PE anti-human IgG
[14] = target: T7, human PTH1R overexpressed on Saos-2 …; test: flow cytometry on Saos-2 cells overexpressing human PTH1R, in the presence of 3 uM PTHrP, PE anti-human IgG

T6 sequence (P49190 25-550): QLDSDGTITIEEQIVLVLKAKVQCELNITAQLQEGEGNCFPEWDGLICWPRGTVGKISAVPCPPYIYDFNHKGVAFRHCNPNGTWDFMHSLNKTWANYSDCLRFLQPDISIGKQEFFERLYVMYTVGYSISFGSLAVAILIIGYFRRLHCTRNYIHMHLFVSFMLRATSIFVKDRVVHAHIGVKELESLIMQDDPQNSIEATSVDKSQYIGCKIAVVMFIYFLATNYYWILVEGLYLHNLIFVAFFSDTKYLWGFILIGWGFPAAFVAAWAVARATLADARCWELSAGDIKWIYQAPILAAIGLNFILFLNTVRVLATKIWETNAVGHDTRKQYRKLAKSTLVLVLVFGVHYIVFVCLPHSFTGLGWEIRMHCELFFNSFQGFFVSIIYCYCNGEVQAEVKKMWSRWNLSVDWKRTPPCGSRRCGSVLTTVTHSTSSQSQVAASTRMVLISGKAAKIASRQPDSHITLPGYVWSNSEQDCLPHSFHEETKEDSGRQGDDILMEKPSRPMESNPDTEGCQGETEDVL

Human PTH(1-34) (from UniProt P01270 32-65) (peptide)
EC50 of PTH (1-34) induced ERK1/2 phosphorylation without anti-PTH1R antibody [1]: 3.8 nM | EC50 of PTH(1-34), cAMP assay, vehicle only [1]: 0.0307 nM | EC50 of PTH(1-34), cAMP assay, vehicle only [2]: 0.0306 nM | EC50 of PTH(1-34), cAMP assay, vehicle only [3]: 0.647 nM | EC50 of PTH(1-34), cAMP assay, vehicle only [4]: 0.524 nM | PTH (1-34) dose response without anti-PTH1R antibody, M-CSF secretion by Saos-2 cells [4]: 1.2 nM

human PTHrP(1-34) (from UniProt P12272 37-70) (peptide)
EC50 of PTHrP(1-34), cAMP assay, vehicle only [2]: 0.0431 nM | EC50 of PTHrP(1-34), cAMP assay, vehicle only [3]: 0.333 nM

B1: XPA.85.330 (antibody, V domains shown)
VH: QMQLVQSGAEVKKPGSSVKVSCKASGGTFSSYAISWVRQAPGQGLEWMGGIIPIFGTANYAQKFQGRVTITADESTSTAYMELSSLRSEDTAVYYCARGYVVARLWGQGTLVTVSS
VL: DIVMTQTPLSLSVTPGQPASISCKSSQSLLHIDGNTYLYWYLQRPGQPPQLLIYEISNRFSGVPDRFSGSGSGTDFTLKISRVEAEDVGVYYCMQSLHFPITFGQGTRLEIK
notes: IgG; also called Ab330
EC50 of antibody, neutralization of M-CSF production induced by 12.5 nM PTHrP (1-36) [5]: 1.5 nM | fold shift of the PTHrP (1-36) dose response, M-CSF secretion by Saos-2 cells, 40 µg/mL antibody [5]: > 200 fold | % inhibition of cAMP accumulation at 1 µM PTH(1-34), 267 nM IgG [6]: 55% | % inhibition of cAMP accumulation at 1 µM PTHrP(1-34), 267 nM IgG [6]: 56% | % inhibition of cAMP accumulation at 1 µM PTH(1-34), 267 nM IgG [7]: 85% | % inhibition of cAMP accumulation at 1 µM PTHrP(1-34), 267 nM IgG [7]: 89% | IC50, inhibition of PTH(1-34)-induced cAMP accumulation [8]: 10.6 nM | IC50, inhibition of PTHrP(1-34)-induced cAMP accumulation [8]: 8.23 nM | IC50, inhibition of PTHrP(1-34)-induced cAMP accumulation [9]: 2.82 nM | Kd [10]: 0.19 nM | koff [10]: 9e-05 s⁻¹ | kon [10]: 470000 M⁻¹ s⁻¹ | binding result [11]: no binding (tested: about 160 nM) | EC50 [12]: 3.67 nM | EC50 [13]: 21.7 nM | EC50 [14]: 193 nM
